T1: Unfused CLuc (Photinus pyralis)
T1 chain: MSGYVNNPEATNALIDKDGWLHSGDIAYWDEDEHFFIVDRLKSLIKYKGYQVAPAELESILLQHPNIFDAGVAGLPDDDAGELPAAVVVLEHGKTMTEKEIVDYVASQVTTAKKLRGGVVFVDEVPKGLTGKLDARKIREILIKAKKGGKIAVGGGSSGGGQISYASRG

B1: Cdc25C-NLuc (other, human;Photinus pyralis, UniProt P30307 1-473, looked up)
chain: MSTELFSSTREEGSSGSGPSFRSNQRKMLNLLLERDTSFTVCPDVPRTPVGKFLGDSANLSILSGGTPKRCLDLSNLSSGEITATQLTTSADLDETGHLDSSGLQEVHLAGMNHDQHLMKCSPAQLLCSTPNGLDRGHRKRDAMCSSSANKENDNGNLVDSEMKYLGSPITTVPKLDKNPNLGEDQAEEISDELMEFSLKDQEAKVSRSGLYRSPSMPENLNRPRLKQVEKFKDNTIPDKVKKKYFSGQGKLRKGLCLKKTVSLCDITITQMLEEDSNQGHLIGDFSKVCALPTVSGKHQDLKYVNPETVAALLSGKFQGLIEKFYVIDCRYPYEYLGGHIQGALNLYSQEELFNFFLKKPIVPLDTQKRIIIVFHCEFSSERGPRMCRCLREEDRSLNQYPALYYPELYILKGGYRDFFPEYMELCEPQSYCPMHHQDHKTELLRCRSQSKVQEGERQLREQIALLVKDMSPEDAKNIKKGPAPFYPLEDGTAGEQLHKAMKRYALVPGTIAFTDAHIEVNITYAEYFEMSVRLAEAMKRYGLNTNHRIVVCSENSLQFFMPVLGALFIGVAVAPANDIYNERELLNSMNISQPTVVFVSKKGLQKILNVQKKLPIIQKIIIMDSKTDYQGFQSMYTFVTSHLPPGFNEYDFVPESFDRDKTIALIMNSSGSTGLPKGVALPHRTACVRFSHARDPIFGNQIIPDTAILSVVPFHHGFGMFTTLGYLICGFRVVLMYRFEEELFLRSLQDYKIQSALLVPTLFSFFAKSTLIDKYDLSNLHEIASGGAPLSKEVGEAVAKRFHLPGIRQGYGLTETTSAILITPEGDDKPGAVGKVVPFFEAKVVDLDTGKTLGVNQRGELCVRGPMIMSGYVNNPEATNALIDKDG
modifications: phosphorylated on S216 in the cells (Western blot, reduced by UCN-01)
notes: FRB of the NLuc fusion vector replaced by the Cdc25C open reading frame; not shown: Gly/Ser linker region reconstituted up to the BsiWI site
B2: CLuc-14-3-3ε (other, UniProt P08659 398-550, looked up)
chain: MSGYVNNPEATNALIDKDGWLHSGDIAYWDEDEHFFIVDRLKSLIKYKGYQVAPAELESILLQHPNIFDAGVAGLPDDDAGELPAAVVVLEHGKTMTEKEIVDYVASQVTTAKKLRGGVVFVDEVPKGLTGKLDARKIREILIKAKKGGKSKLMDDREDLVYQAKLAEQAERYDEMVESMKKVAGMDVELTVEERNLLSVAYKNVIGARRASWRIISSIEQKEENKGGEDKLKMIREYRQMVETELKLICCDILDVLDKHLIPAANTGESKVFYYKMKGDYHRYLAEFATGNDRKEAAENSLVAYKAASDIAMTELPPTHPIRLGLALNFSVFYYEILNSPDRACRLAKAAFDDAIAELDTLSEESYKDSTLIMQLLRDNLTLWTSDMQGDGEEQNKEALQDVEDENQ
notes: FKBP of the CLuc fusion vector replaced by 14-3-3ε; not shown: Gly/Ser linker with cloning sites
B3: Unfused NLuc (2-416) (other, Photinus pyralis, UniProt P08659 2-416, looked up)
chain: EDAKNIKKGPAPFYPLEDGTAGEQLHKAMKRYALVPGTIAFTDAHIEVNITYAEYFEMSVRLAEAMKRYGLNTNHRIVVCSENSLQFFMPVLGALFIGVAVAPANDIYNERELLNSMNISQPTVVFVSKKGLQKILNVQKKLPIIQKIIIMDSKTDYQGFQSMYTFVTSHLPPGFNEYDFVPESFDRDKTIALIMNSSGSTGLPKGVALPHRTACVRFSHARDPIFGNQIIPDTAILSVVPFHHGFGMFTTLGYLICGFRVVLMYRFEEELFLRSLQDYKIQSALLVPTLFSFFAKSTLIDKYDLSNLHEIASGGAPLSKEVGEAVAKRFHLPGIRQGYGLTETTSAILITPEGDDKPGAVGKVVPFFEAKVVDLDTGKTLGVNQRGELCVRGPMIMSGYVNNPEATNALIDKDG
B4: S2035I FRB-NLuc (other)
chain: MEMWHEGLEEAIRLYFGERNVKGMFEVLEPLHAMMERGPQTLKETSFNQAYGRDLMEAQEWCRKYMKSGNVKDLTQAWDLYYHVFRRISKQQISYASRGGGSSGGGEDAKNIKKGPAPFYPLEDGTAGEQLHKAMKRYALVPGTIAFTDAHIEVDITYAEYFEMSVRLAEAMKRYGLNTNHRIVVCSENSLQFFMPVLGALFIGVAVAPANDIYNERELLNSMGISQPTVVFVSKKGLQKILNVQKKLPIIQKIIIMDSKTDYQGFQSMYTFVTSHLPPGFNEYDFVPESFDRDKTIALIMNSSGSTGLPKGVALPHRTACVRFSHARDPIFGNQIIPDTAILSVVPFHHGFGMFTTLGYLICGFRVVLMYRFEEELFLRSLQDYKIQSALLVPTLFSFFAKSTLIDKYDLSNLHEIASGGAPLSKEVGEAVAKRFHLPGIRQGYGLTETTSAILITPEGDDKPGAVGKVVPFFEAKVVDLDTGKTLGVNQRGELCVRGPMIMSGYVNNPEATNALIDKDG
notes: Point mutant of FRB-NLuc made by site directed mutagenesis; also called mutant FRB(S2035I); FRB(S20351)
B5: FRB-NLuc(2-416) (other, human;Photinus pyralis, UniProt P42345 2024-2113, looked up)
chain: HEMWHEGLEEASRLYFGERNVKGMFEVLEPLHAMMERGPQTLKETSFNQAYGRDLMEAQEWCRKYMKSGNVKDLTQAWDLYYHVFRRISKEDAKNIKKGPAPFYPLEDGTAGEQLHKAMKRYALVPGTIAFTDAHIEVNITYAEYFEMSVRLAEAMKRYGLNTNHRIVVCSENSLQFFMPVLGALFIGVAVAPANDIYNERELLNSMNISQPTVVFVSKKGLQKILNVQKKLPIIQKIIIMDSKTDYQGFQSMYTFVTSHLPPGFNEYDFVPESFDRDKTIALIMNSSGSTGLPKGVALPHRTACVRFSHARDPIFGNQIIPDTAILSVVPFHHGFGMFTTLGYLICGFRVVLMYRFEEELFLRSLQDYKIQSALLVPTLFSFFAKSTLIDKYDLSNLHEIASGGAPLSKEVGEAVAKRFHLPGIRQGYGLTETTSAILITPEGDDKPGAVGKVVPFFEAKVVDLDTGKTLGVNQRGELCVRGPMIMSGYVNNPEATNALIDKDG
notes: range 2024-2113;range 2-416; The printed ORF starts with an added Met (MEMWHEG...); not shown: flexible Gly/Ser linker with multiple cloning site
B6: CLuc-STAT1 (other, Photinus pyralis;human, UniProt P08659 398-550, looked up)
chain: MSGYVNNPEATNALIDKDGWLHSGDIAYWDEDEHFFIVDRLKSLIKYKGYQVAPAELESILLQHPNIFDAGVAGLPDDDAGELPAAVVVLEHGKTMTEKEIVDYVASQVTTAKKLRGGVVFVDEVPKGLTGKLDARKIREILIKAKKGGKSKLMSQWYELQQLDSKFLEQVHQLYDDSFPMEIRQYLAQWLEKQDWEHAANDVSFATIRFHDLLSQLDDQYSRFSLENNFLLQHNIRKSKRNLQDNFQEDPIQMSMIIYSCLKEERKILENAQRFNQAQSGNIQSTVMLDKQKELDSKVRNVKDKVMCIEHEIKSLEDLQDEYDFKCKTLQNREHETNGVAKSDQKQEQLLLKKMYLMLDNKRKEVVHKIIELLNVTELTQNALINDELVEWKRRQQSACIGGPPNACLDQLQNWFTIVAESLQQVRQQLKKLEELEQKYTYEHDPITKNKQVLWDRTFSLFQQLIQSSFVVERQPCMPTHPQRPLVLKTGVQFTVKLRLLVKLQELNYNLKVKVLFDKDVNERNTVKGFRKFNILGTHTKVMNMEESTNGSLAAEFRHLQLKEQKNAGTRTNEGPLIVTEELHSLSFETQLCQPGLVIDLETTSLPVVVISNVSQLPSGWASILWYNMLVAEPRNLSFFLTPPCARWAQLSEVLSWQFSSVTKRGLNVDQLNMLGEKLLGPNASPDGLIPWTRFCKENINDKNFPFWLWIESILELIKKHLLPLWNDGCIMGFISKERERALLKDQQPGTFLLRFSESSREGAITFTWVERSQNGGEPDFHAVEPYTKKELSAVTFPDIIRNYKVMAAENIPENPLKYLYPNIDKDHAFGKYYSRPKEAPEPMELDGPKGTGYIKTELISVSEVHPSRLQTTDNLLPMSPEEFDEVSRIVGSVEFDSMMNTV
modifications: unphosphorylated on Y701 in untreated cells (Western blot); phosphorylated after IFN-γ
notes: not shown: Gly/Ser linker with cloning sites

Legend:
CLuc-STAT1 = molecular target: B6; assay: LCI, live HEK-293 cells
STAT1-NLuc = molecular target: T2, STAT1-NLuc (human; Photinus pyralis, UniProt P42224 1-750; P08659 2-416 = luciferase, unphosphorylated on Y701 in untreated cells (Western blot); phosphorylated after IFN-γ); assay: LCI, live HEK-293 cells
T2 construct: not shown: Gly/Ser linker region reconstituted up to the BsiWI site

Unfused CLuc = molecular target: T1, Unfused CLuc; assay: cell-based or functional assay
CLuc(398-550)-FKBP [1] = molecular target: T3, CLuc(398-550)-FKBP (Photinus pyralis; human, UniProt P08659 398-550 = luciferase; P62942 1-108); assay: LCI in mice with i.p. implants of transfected HEK-293 cells, with and without rapamycin
T3 construct: The printed ORF starts with an added Met; also called CLuc-FKBP; not shown: flexible Gly/Ser linker with multiple cloning site

CLuc(398-550)-FKBP [2] = molecular target: T3, CLuc(398-550)-FKBP; assay: cell-based or functional assay

B1: no binding (CLuc-STAT1).

B2: no binding (STAT1-NLuc).

For B3, the “background bioluminescence against the FRB-NLuc/CLuc-FKBP pair in the absence of rapamycin” value (Unfused CLuc) was 12 fold less and the “background bioluminescence against the FRB-NLuc/CLuc-FKBP pair in the presence of rapamycin” value (Unfused CLuc) was 100 fold less.

B4: no binding (CLuc(398-550)-FKBP [1]).

With B5 the “bioluminescence signal against FRB-NLuc/CLuc-FKBP without rapamycin” value (Unfused CLuc) was 3 fold lower, the “apparent Kd of rapamycin for induced FRB/FKBP association, bioluminescence readout in intact HEK-293 cells” value (CLuc(398-550)-FKBP [2]) was 1.5 nM and the “apparent Ki of FK506 for inhibition of rapamycin-induced luciferase activity in situ (rapamycin 80 nM)” value (CLuc(398-550)-FKBP [2]) was 4.2 nM. The “bioluminescence induction by rapamycin (80 nM) in cell lysates over untreated lysates, within 15 minutes” value (CLuc(398-550)-FKBP [2]) was 18 fold, the “drug-specific induction of bioluminescence over background” value (CLuc(398-550)-FKBP [2]) was 1200 fold and the “maximal mean bioluminescence signal over untransfected cells, with rapamycin, live HEK-293 cells” value (CLuc(398-550)-FKBP [2]) was 72 fold. The “maximum bioluminescence in rapamycin-treated mice over untreated mice (i.p. cell implants)” value (CLuc(398-550)-FKBP [2]) was 23 fold, the “mean maximal increase in bioluminescence with rapamycin (80 nM) over untreated transfected cells, within 4-6 hrs” value (CLuc(398-550)-FKBP [2]) was 6 fold and the binding result (CLuc-STAT1) was “no binding”.

B6: binds (STAT1-NLuc).

Source: US20050144661A1 (WASHINGTON UNIVERSITY, published 2005)
